Where a chain is given by its changes, count along the chain named. Names and notes keep the numbering of the source.

The results in this text go back to patent publication US20110118131A1 (published 2011).

This assay addresses T1, IL-1β (UniProt P01584 117-269).
T1 construct: Antigen immobilised on the Biacore chip
Put plainly: Biacore, periplasmic extract. A general note: In SPR one partner is held on a chip, and binding of the other changes the refractive index at the surface.

B1: XPA23 light chain R31P (Fab, V domains shown)
VH: EVQLLESGGGLVQPGGSLRLSCAASGFTFSKYFMFWVRQAPGKGLEWVSVISPSGGMTRYADSVKGRFTISRDNSKNTLYLQMNSLRAEDTAVYYCARVGYGGNSDYWGQGTLVTVSS
VL: DIQMTQSPSSVSASVGDRLTIICRASQDINPWLAWYQQTPGNAPKLLIHSATSLQSGVPSRFSGSGSGTDFTLTINSLQPEDFATYYCQQADSFPLTFGGGTKVEIK
For B1, the binding result is “no binding”.

B2: XPA23 light chain S50A (Fab, V domains shown)
VH: B1 VH
VL: B1 VL with P31R, S50A
With B2, the “fold difference in affinity vs original” value worked out at 0.13 fold.

B3: XPA23 light chain S50D (Fab, V domains shown)
VH: B1 VH
VL: B1 VL with P31R, S50D
In the case of B3, the binding result is given as “no binding”.

B4: XPA23 light chain S50T (Fab, V domains shown)
VH: B1 VH
VL: B1 VL with P31R, S50T
For the molecule B4, the “fold difference in affinity vs original” value was found to be 0.87 fold.

B5: XPA23 light chain S50K (Fab, V domains shown)
VH: B1 VH
VL: B1 VL with P31R, S50K
For B5, the “fold difference in affinity vs original” value was determined as 0.1 fold.

B6: XPA23 light chain S50F (Fab, V domains shown)
VH: B1 VH
VL: B1 VL with P31R, S50F
In the case of B6, the binding result is reported as “no binding”.

B7: XPA23 light chain S50R (Fab, V domains shown)
VH: B1 VH
VL: B1 VL with P31R, S50R
For the molecule B7, the binding result is reported as “no binding”.

B8: XPA23 light chain R31Y (Fab, V domains shown)
VH: B1 VH
VL: B1 VL with P31Y
For B8, the binding result is on record as “no binding”.

B9: XPA23 light chain S93N (Fab, V domains shown)
VH: B1 VH
VL: B1 VL with P31R, S93N
Consider B9, for which the “fold difference in affinity vs original” value was determined as 3.76 fold.

B10: XPA23 light chain S53R (Fab, V domains shown)
VH: B1 VH
VL: B1 VL with P31R, S53R
For B10, the “fold difference in affinity vs original” value was found to be 3.29 fold.

B11: XPA23 light chain S93Y (Fab, V domains shown)
VH: B1 VH
VL: B1 VL with P31R, S93Y
Regarding B11, the “fold difference in affinity vs original” value stood at 1.45 fold.

B12: XPA23 light chain S53N (Fab, V domains shown)
VH: B1 VH
VL: B1 VL with P31R, S53N
In the case of B12, the “fold difference in affinity vs original” value stood at 1.23 fold.

B13: XPA23 light chain S50H (Fab, V domains shown)
VH: B1 VH
VL: B1 VL with P31R, S50H
Take B13: the “fold difference in affinity vs original” value stood at 0.05 fold.

B14: XPA23 light chain R31V (Fab, V domains shown)
VH: B1 VH
VL: B1 VL with P31V
With B14, the “fold difference in affinity vs original” value worked out at 0.44 fold.

B15: XPA23 light chain S93E (Fab, V domains shown)
VH: B1 VH
VL: B1 VL with P31R, S93E
In the case of B15, the “fold difference in affinity vs original” value was found to be 3.71 fold.

B16: XPA23 light chain S93Q (Fab, V domains shown)
VH: B1 VH
VL: B1 VL with P31R, S93Q
B16: the “fold difference in affinity vs original” value was 1.54 fold.

B17: XPA23 light chain S53D (Fab, V domains shown)
VH: B1 VH
VL: B1 VL with P31R, S53D
With B17, the binding result is on record as “no binding”.

B18: XPA23 light chain S93K (Fab, V domains shown)
VH: B1 VH
VL: B1 VL with P31R, S93K
Take B18: the “fold difference in affinity vs original” value turned out to be 0.86 fold.

B19: XPA23 light chain S93H (Fab, V domains shown)
VH: B1 VH
VL: B1 VL with P31R, S93H
With B19, the “fold difference in affinity vs original” value stood at 1.08 fold.

B20: XPA23 light chain S93R (Fab, V domains shown)
VH: B1 VH
VL: B1 VL with P31R, S93R
On to B20, for which the “fold difference in affinity vs original” value is 0.91 fold.

B21: XPA23 light chain S50Y (Fab, V domains shown)
VH: B1 VH
VL: B1 VL with P31R, S50Y
With B21, the “fold difference in affinity vs original” value was 0.05 fold.

B22: XPA23 light chain S93W (Fab, V domains shown)
VH: B1 VH
VL: B1 VL with P31R, S93W
For B22, the “fold difference in affinity vs original” value was determined as 5.49 fold.

B23: XPA23 light chain S50N (Fab, V domains shown)
VH: B1 VH
VL: B1 VL with P31R, S50N
With B23, the “fold difference in affinity vs original” value is 0.25 fold.

B24: XPA23 light chain R31W (Fab, V domains shown)
VH: B1 VH
VL: B1 VL with P31W
As for B24, the “fold difference in affinity vs original” value was 0.43 fold.

B25: XPA23 light chain S50Q (Fab, V domains shown)
VH: B1 VH
VL: B1 VL with P31R, S50Q
For the molecule B25, the “fold difference in affinity vs original” value amounted to 0.21 fold.

B26: XPA23 light chain R31Q (Fab, V domains shown)
VH: B1 VH
VL: B1 VL with P31Q
B26: the “fold difference in affinity vs original” value stood at 0.27 fold.

B27: XPA23 light chain S50I (Fab, V domains shown)
VH: B1 VH
VL: B1 VL with P31R, S50I
On to B27, for which the “fold difference in affinity vs original” value was determined as 0.25 fold.

B28: XPA23 light chain S93D (Fab, V domains shown)
VH: B1 VH
VL: B1 VL with P31R, S93D
With B28, the “fold difference in affinity vs original” value was found to be 4.59 fold.

B29: XPA23 light chain S50V (Fab, V domains shown)
VH: B1 VH
VL: B1 VL with P31R, S50V
Regarding B29, the “fold difference in affinity vs original” value turned out to be 0.21 fold.

B30: XPA23 light chain S50L (Fab, V domains shown)
VH: B1 VH
VL: B1 VL with P31R, S50L
Take B30: the “fold difference in affinity vs original” value is 0.49 fold.

B31: XPA23 light chain S53W (Fab, V domains shown)
VH: B1 VH
VL: B1 VL with P31R, S53W
On to B31, for which the “fold difference in affinity vs original” value turned out to be 1.11 fold.

B32: XPA23 light chain R31S (Fab, V domains shown)
VH: B1 VH
VL: B1 VL with P31S
With B32, the “fold difference in affinity vs original” value was determined as 0.44 fold.

B33: XPA23 light chain S53Y (Fab, V domains shown)
VH: B1 VH
VL: B1 VL with P31R, S53Y
Consider B33, for which the “fold difference in affinity vs original” value was determined as 1.23 fold.

B34: XPA23 light chain S50P (Fab, V domains shown)
VH: B1 VH
VL: B1 VL with P31R, S50P
Turning to B34, the binding result is given as “no binding”.

B35: XPA23 light chain S53F (Fab, V domains shown)
VH: B1 VH
VL: B1 VL with P31R, S53F
For B35, the “fold difference in affinity vs original” value was 1.24 fold.

B36: XPA23 light chain S93F (Fab, V domains shown)
VH: B1 VH
VL: B1 VL with P31R, S93F
Take B36: the “fold difference in affinity vs original” value amounted to 1.32 fold.

B37: XPA23 light chain S50E (Fab, V domains shown)
VH: B1 VH
VL: B1 VL with P31R, S50E
Turning to B37, the “fold difference in affinity vs original” value worked out at 0.02 fold.

B38: XPA23 light chain S53E (Fab, V domains shown)
VH: B1 VH
VL: B1 VL with P31R, S53E
As to B38, the “fold difference in affinity vs original” value turned out to be 1.13 fold.

B39: XPA23 light chain S50G (Fab, V domains shown)
VH: B1 VH
VL: B1 VL with P31R, S50G
Consider B39, for which the “fold difference in affinity vs original” value stood at 0.14 fold.

B40: XPA23 light chain S53K (Fab, V domains shown)
VH: B1 VH
VL: B1 VL with P31R, S53K
As to B40, the “fold difference in affinity vs original” value is 4.07 fold.

B41: XPA23 light chain S53Q (Fab, V domains shown)
VH: B1 VH
VL: B1 VL with P31R, S53Q
As to B41, the “fold difference in affinity vs original” value came out at 1.09 fold.

B42: XPA23 light chain R31T (Fab, V domains shown)
VH: B1 VH
VL: B1 VL with P31T
Regarding B42, the “fold difference in affinity vs original” value was 0.24 fold.

B43: XPA23 light chain S50W (Fab, V domains shown)
VH: B1 VH
VL: B1 VL with P31R, S50W
As to B43, the “fold difference in affinity vs original” value was found to be 0.02 fold.
